Patent US20210388110A1 (published 2021)

Target: T1, soluble human CD3ε chain (human, UniProt P07766 23-126, limits assumed)
T1 construct: the text says soluble human CD3ε chain; also called human CD3 epsilon chain
Test: SPR (Biacore)

T1 sequence (P07766 23-126 limits assumed): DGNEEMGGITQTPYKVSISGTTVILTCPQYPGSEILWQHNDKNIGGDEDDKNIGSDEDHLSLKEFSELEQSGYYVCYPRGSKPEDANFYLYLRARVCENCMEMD

| Binder | Kd [nM] |
| --- | --- |
| TR01H100-E22Hh/none-Hi-Kn010G3/L0011-k0 (antibody, human IgG1, kappa, L234A L235A, N297A, single-arm) heavy: QVQLVESGGGLVQPGRSLRLSCAASGFTFSNAWMHWVRQAPGKGLEWVAQIKDKSQNYASYYAESVKGRFTISRDDSKNSLYLQMNSLKTEDTAVYYCRYVHYAAGYGVDAWGQGTTVTVSSASTKGPSVFPLAPSSKSTSGGTAALGCLVKDYFPEPVTVSWNSGALTSGVHTFPAVLQSSGLYSLSSVVTVPSSSLGTQTYICNVNHKPSNTKVDKKVEPKSCDKTHTCPPCPAPEAAGGPSVFLFPPKPKDTLMISRTPEVTCVVVDVSHEDPEVKFNWYVDGVEVHNAKTKPREEQYASTYRVVSVLTVLHQDWLNGKEYKCKVSNKALPAPIEKTISKAKGQPREPQVYTLPPSRCELTKNQVSLSCAVKGFYPSDIAVEWESNGQPENNYKTTPPVLDSDGSFFLVSKLTVDKSRWQQGNVFSCSVMHEALHNHYTQKSLSLSPDYKDDDDK EPKSSDKTHTCPPCPAPELLGGPSVFLFPPKPKDTLMISRTPEVTCVVVDVSHEDPEVKFNWYVDGVEVHNAKTKPREEQYNSTYRVVSVLTVLHQDWLNGKEYKCKVSNKALPAPIEKTISKAKGQPREPQVCTLPPSRDELTKNQVSLWCLVKGFYPSDIAVEWESNGQPENNYKTTPPVLDSDGSFFLYSKLTVDKSRWQQGNVFSCSVMHEALHNRYTQKSLSLSP light: DIVMTQSPLSLPVTPGEPASISCRSSQPLVHSNRNTYLHWYQQKPGQAPRLLIYKVSNRFSGVPDRFSGSGSGTDFTLKISRVEAEDVGVYYCGQGTQVPYTFGQGTKLEIKRTVAAPSVFIFPPSDEQLKSGTASVVCLLNNFYPREAKVQWKVDNALQSGNSQESVTEQDSKDSTYSLSSTLTLSKADYEKHKVYACEVTHQGLSSPVTKSFNRGEC | 62.5 |
| TR01H084-E22Hh/none-Hi-Kn010G3/L0272-k0 (antibody, human IgG1, kappa, L234A L235A, N297A, single-arm) heavy: QVQLVESGGGVVQPGGSLRLSCAASGFTFSNAWMHWVRQAPGKGLEWVAQIKDKSQNYATYYAESVKGRFTISRADSKNSIYLQMNSLKTEDTAVYYCRYVHYAAGYGVDIWGQGTTVTVSSASTKGPSVFPLAPSSKSTSGGTAALGCLVKDYFPEPVTVSWNSGALTSGVHTFPAVLQSSGLYSLSSVVTVPSSSLGTQTYICNVNHKPSNTKVDKKVEPKSCDKTHTCPPCPAPEAAGGPSVFLFPPKPKDTLMISRTPEVTCVVVDVSHEDPEVKFNWYVDGVEVHNAKTKPREEQYASTYRVVSVLTVLHQDWLNGKEYKCKVSNKALPAPIEKTISKAKGQPREPQVYTLPPSRCELTKNQVSLSCAVKGFYPSDIAVEWESNGQPENNYKTTPPVLDSDGSFFLVSKLTVDKSRWQQGNVFSCSVMHEALHNHYTQKSLSLSPDYKDDDDK EPKSSDKTHTCPPCPAPELLGGPSVFLFPPKPKDTLMISRTPEVTCVVVDVSHEDPEVKFNWYVDGVEVHNAKTKPREEQYNSTYRVVSVLTVLHQDWLNGKEYKCKVSNKALPAPIEKTISKAKGQPREPQVCTLPPSRDELTKNQVSLWCLVKGFYPSDIAVEWESNGQPENNYKTTPPVLDSDGSFFLYSKLTVDKSRWQQGNVFSCSVMHEALHNRYTQKSLSLSP light: DIVMTQSPLSLPVTPGEPASISCRSSQPLVHSNRQTYLHWYQQKPGQAPRLLIYKVSNRFSGVPDRFSGSGSGTDFTLKISRVEAEDVGVYYCGQGTQVPYTFGQGTKLEIKRTVAAPSVFIFPPSDEQLKSGTASVVCLLNNFYPREAKVQWKVDNALQSGNSQESVTEQDSKDSTYSLSSTLTLSKADYEKHKVYACEVTHQGLSSPVTKSFNRGEC | 31 |
| TR01H084-E22Hh/none-Hi-Kn010G3/L0270-k0 (antibody, human IgG1, kappa, L234A L235A, N297A, single-arm) heavy: QVQLVESGGGVVQPGGSLRLSCAASGFTFSNAWMHWVRQAPGKGLEWVAQIKDKSQNYATYYAESVKGRFTISRADSKNSIYLQMNSLKTEDTAVYYCRYVHYAAGYGVDIWGQGTTVTVSSASTKGPSVFPLAPSSKSTSGGTAALGCLVKDYFPEPVTVSWNSGALTSGVHTFPAVLQSSGLYSLSSVVTVPSSSLGTQTYICNVNHKPSNTKVDKKVEPKSCDKTHTCPPCPAPEAAGGPSVFLFPPKPKDTLMISRTPEVTCVVVDVSHEDPEVKFNWYVDGVEVHNAKTKPREEQYASTYRVVSVLTVLHQDWLNGKEYKCKVSNKALPAPIEKTISKAKGQPREPQVYTLPPSRCELTKNQVSLSCAVKGFYPSDIAVEWESNGQPENNYKTTPPVLDSDGSFFLVSKLTVDKSRWQQGNVFSCSVMHEALHNHYTQKSLSLSPDYKDDDDK EPKSSDKTHTCPPCPAPELLGGPSVFLFPPKPKDTLMISRTPEVTCVVVDVSHEDPEVKFNWYVDGVEVHNAKTKPREEQYNSTYRVVSVLTVLHQDWLNGKEYKCKVSNKALPAPIEKTISKAKGQPREPQVCTLPPSRDELTKNQVSLWCLVKGFYPSDIAVEWESNGQPENNYKTTPPVLDSDGSFFLYSKLTVDKSRWQQGNVFSCSVMHEALHNRYTQKSLSLSP light: DIVMTQSPLSLPVTPGEPASISCRSSQSLVHSNRQTYLHWYQQKPGQAPRLLIYKVSNRFSGVPDRFSGSGSGTDFTLKISRVEAEDVGVYYCGQGTQVPYTFGQGTKLEIKRTVAAPSVFIFPPSDEQLKSGTASVVCLLNNFYPREAKVQWKVDNALQSGNSQESVTEQDSKDSTYSLSSTLTLSKADYEKHKVYACEVTHQGLSSPVTKSFNRGEC | 27.6 |
| TR01H084-E22Hh/none-Hi-Kn010G3/L0271-k0 (antibody, human IgG1, kappa, L234A L235A, N297A, single-arm) heavy: QVQLVESGGGVVQPGGSLRLSCAASGFTFSNAWMHWVRQAPGKGLEWVAQIKDKSQNYATYYAESVKGRFTISRADSKNSIYLQMNSLKTEDTAVYYCRYVHYAAGYGVDIWGQGTTVTVSSASTKGPSVFPLAPSSKSTSGGTAALGCLVKDYFPEPVTVSWNSGALTSGVHTFPAVLQSSGLYSLSSVVTVPSSSLGTQTYICNVNHKPSNTKVDKKVEPKSCDKTHTCPPCPAPEAAGGPSVFLFPPKPKDTLMISRTPEVTCVVVDVSHEDPEVKFNWYVDGVEVHNAKTKPREEQYASTYRVVSVLTVLHQDWLNGKEYKCKVSNKALPAPIEKTISKAKGQPREPQVYTLPPSRCELTKNQVSLSCAVKGFYPSDIAVEWESNGQPENNYKTTPPVLDSDGSFFLVSKLTVDKSRWQQGNVFSCSVMHEALHNHYTQKSLSLSPDYKDDDDK EPKSSDKTHTCPPCPAPELLGGPSVFLFPPKPKDTLMISRTPEVTCVVVDVSHEDPEVKFNWYVDGVEVHNAKTKPREEQYNSTYRVVSVLTVLHQDWLNGKEYKCKVSNKALPAPIEKTISKAKGQPREPQVCTLPPSRDELTKNQVSLWCLVKGFYPSDIAVEWESNGQPENNYKTTPPVLDSDGSFFLYSKLTVDKSRWQQGNVFSCSVMHEALHNRYTQKSLSLSP light: DIVMTQSPLSLPVTPGEPASISCRSSQPPVHSNRQTYLHWYQQKPGQAPRLLIYKVSNRFSGVPDRFSGSGSGTDFTLKISRVEAEDVGVYYCGQGTQVPYTFGQGTKLEIKRTVAAPSVFIFPPSDEQLKSGTASVVCLLNNFYPREAKVQWKVDNALQSGNSQESVTEQDSKDSTYSLSSTLTLSKADYEKHKVYACEVTHQGLSSPVTKSFNRGEC | 27.6 |

The next binders have a lower Kd than those just listed; values first:

| Kd [nM] | Binder |
| --- | --- |
| 16.5 | TR01H084-E22Hh/none-Hi-Kn010G3/L0201-k0 (antibody, human IgG1, kappa, L234A L235A, N297A, single-arm) heavy: QVQLVESGGGVVQPGGSLRLSCAASGFTFSNAWMHWVRQAPGKGLEWVAQIKDKSQNYATYYAESVKGRFTISRADSKNSIYLQMNSLKTEDTAVYYCRYVHYAAGYGVDIWGQGTTVTVSSASTKGPSVFPLAPSSKSTSGGTAALGCLVKDYFPEPVTVSWNSGALTSGVHTFPAVLQSSGLYSLSSVVTVPSSSLGTQTYICNVNHKPSNTKVDKKVEPKSCDKTHTCPPCPAPEAAGGPSVFLFPPKPKDTLMISRTPEVTCVVVDVSHEDPEVKFNWYVDGVEVHNAKTKPREEQYASTYRVVSVLTVLHQDWLNGKEYKCKVSNKALPAPIEKTISKAKGQPREPQVYTLPPSRCELTKNQVSLSCAVKGFYPSDIAVEWESNGQPENNYKTTPPVLDSDGSFFLVSKLTVDKSRWQQGNVFSCSVMHEALHNHYTQKSLSLSPDYKDDDDK EPKSSDKTHTCPPCPAPELLGGPSVFLFPPKPKDTLMISRTPEVTCVVVDVSHEDPEVKFNWYVDGVEVHNAKTKPREEQYNSTYRVVSVLTVLHQDWLNGKEYKCKVSNKALPAPIEKTISKAKGQPREPQVCTLPPSRDELTKNQVSLWCLVKGFYPSDIAVEWESNGQPENNYKTTPPVLDSDGSFFLYSKLTVDKSRWQQGNVFSCSVMHEALHNRYTQKSLSLSP light: DIVMTQSPLSLPVTPGEPASISCRSSQPPVHSNRNTYLHWYQQKPGQAPRLLIYKVSNRFSGVPDRFSGSGSGTDFTLKISRVEAEDVGVYYCGQGTQVPYTFGQGTKLEIKRTVAAPSVFIFPPSDEQLKSGTASVVCLLNNFYPREAKVQWKVDNALQSGNSQESVTEQDSKDSTYSLSSTLTLSKADYEKHKVYACEVTHQGLSSPVTKSFNRGEC |
| 8.51 | TR01H084-E22Hh/none-Hi-Kn010G3/L0262-k0 (antibody, human IgG1, kappa, L234A L235A, N297A, single-arm) heavy: QVQLVESGGGVVQPGGSLRLSCAASGFTFSNAWMHWVRQAPGKGLEWVAQIKDKSQNYATYYAESVKGRFTISRADSKNSIYLQMNSLKTEDTAVYYCRYVHYAAGYGVDIWGQGTTVTVSSASTKGPSVFPLAPSSKSTSGGTAALGCLVKDYFPEPVTVSWNSGALTSGVHTFPAVLQSSGLYSLSSVVTVPSSSLGTQTYICNVNHKPSNTKVDKKVEPKSCDKTHTCPPCPAPEAAGGPSVFLFPPKPKDTLMISRTPEVTCVVVDVSHEDPEVKFNWYVDGVEVHNAKTKPREEQYASTYRVVSVLTVLHQDWLNGKEYKCKVSNKALPAPIEKTISKAKGQPREPQVYTLPPSRCELTKNQVSLSCAVKGFYPSDIAVEWESNGQPENNYKTTPPVLDSDGSFFLVSKLTVDKSRWQQGNVFSCSVMHEALHNHYTQKSLSLSPDYKDDDDK EPKSSDKTHTCPPCPAPELLGGPSVFLFPPKPKDTLMISRTPEVTCVVVDVSHEDPEVKFNWYVDGVEVHNAKTKPREEQYNSTYRVVSVLTVLHQDWLNGKEYKCKVSNKALPAPIEKTISKAKGQPREPQVCTLPPSRDELTKNQVSLWCLVKGFYPSDIAVEWESNGQPENNYKTTPPVLDSDGSFFLYSKLTVDKSRWQQGNVFSCSVMHEALHNRYTQKSLSLSP light: DIVMTQSPLSLPVTPGEPASISCRSSQPPVHSNRNTYLHWYQQKPGQAPRLLIYKVSNRFSGVPDRFSGSGSGTDFTLKISRVEAEDVGVYYCAQGTQVPYTFGQGTKLEIKRTVAAPSVFIFPPSDEQLKSGTASVVCLLNNFYPREAKVQWKVDNALQSGNSQESVTEQDSKDSTYSLSSTLTLSKADYEKHKVYACEVTHQGLSSPVTKSFNRGEC |
